Assay results reported in the supplement of paper PMC12764529.
± gives the half width of the 95% confidence interval.

Key:
[1] = folding stability dG unfold from trypsin proteolysis; higher = more stable
Summary of the method: (§1)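 K50 was inferred by Bayesian fitting of sequencing counts obtained after protease digestion of designed mini-proteins. Unfolding free energy was derived by comparison with a sequence-predicted unfolded-state K50 and a shared folded-state K50, for each protease or both combined. The mini-proteins were under 80 residues, had no cysteine, were carried in a PA-tagged cDNA display construct, and were kept only if AlphaFold2 dimer inter-PAE exceeded 15.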

[2] = folding stability dG unfold from chymotrypsin proteolysis; higher = more stable
Summary of the method: as §1

[3] = folding stability dG unfold (combined trypsin and chymotrypsin); higher = more stable
Summary of the method: as §1

Row | Sequence | folding stability dG unfold [1] [kcal/mol] | folding stability dG unfold [2] [kcal/mol] | folding stability dG unfold [3] [kcal/mol]
1 | SAGGSAGGSAGGSFKIKDIEVNPDALKKGNFIQIRIENGWVIHINPNGEIEVVELPPDASAGGSAGGSAGGS [r4_373_TrROS] | 0.356 ± 0.083 | 1.59 ± 0.072 | 1.25 ± 0.095
2 | SAGGSAGGSAGGSGLYLRLFDPGTGNVVAEVRVEIAPDGSLIAEARVADVPPVEDPEKASAGGSAGGSAGGS [r4_178_TrMRF] | 0.712 ± 0.048 | 2.39 ± 0.072 | 1.85 ± 0.17
3 | SAGGSAGGSAGGSGMKYKVTVTFPGGEVRSLEVDSVEEALEKLKEENRPIKEVTVEPLESAGGSAGGSAGGS [r4_213_JUSTAS] | 2.2 ± 0.14 | 2.54 ± 0.13 | 2.44 ± 0.16
4 | SAGGSAGGSAGGSGMTSTTYRLPEGNVVLVETFDPATGTVTLEIRGPPSVERTLTLPVASAGGSAGGSAGGS [r4_443_JUSTAS] | 2.63 ± 0.29 | 3.64 ± 0.088 | 3.21 ± 0.24
5 | SAGGSAGGSAGGSGMTTTLLEQREFTLPNGEPVRVTVARFPGGEIVTETEDGVVTTDPLSAGGSAGGSAGGS [r4_111_JUSTAS] | -0.134 ± 0.064 | 0.281 ± 0.08 | 0.159 ± 0.08
6 | SAGGSAGGSAGGSGMTYRTVEIEVRLPEVPGKTVKITIVVPEGATEEEIKALAEELARKSAGGSAGGSAGGS [r4_442_TrROS_Hall] | 2.87 ± 0.14 | 2.88 ± 0.039 | 2.94 ± 0.12
7 | SAGGSAGGSAGGSGNPVVRVFEFDDYIAVVTFNPGDGSVEVLSVGKVPPAAIPGSPELSSAGGSAGGSAGGS [r4_21_TrMRF] | 1.08 ± 0.024 | 1.16 ± 0.033 | 1.17 ± 0.036
8 | SAGGSAGGSAGGSGPPSLPGVLVEIPEPLPGPEGTEFSDPKGYKYTYDPSNGKVLVERASAGGSAGGSAGGS [r4_78_JUSTAS] | -0.753 ± 0.17 | -0.0458 ± 0.16 | -0.242 ± 0.19
9 | SAGGSAGGSAGGSGPSVTVSTTTLPPLPVTVETVTVGDTTVLVVFTPEGGSAVVPSGALSAGGSAGGSAGGS [r4_256_JUSTAS] | 1.96 ± 0.091 | 0.858 ± 0.02 | 1.4 ± 0.087
10 | SAGGSAGGSAGGSGPSVVLVSLPDGSYIAFPSGADVNIEIPSSSSGARIVAVIPLSELSSAGGSAGGSAGGS [r4_122_TrMRF] | 0.111 ± 0.059 | 0.714 ± 0.024 | 0.518 ± 0.11
11 | SAGGSAGGSAGGSGSMSVSGGPSVIVVTLPGGEKVVLPLDELDELYKLPYVSATTVSLPSAGGSAGGSAGGS [r4_348_JUSTAS] | 1.45 ± 0.065 | 0.24 ± 0.18 | 1.13 ± 0.14
12 | SAGGSAGGSAGGSGSVRIKVYNPKTGEVLELEVPEELVPAAVEAAKALGFEKVEVSPGKSAGGSAGGSAGGS [r4_102_TrMRF] | 1.59 ± 0.065 | 2.91 ± 0.077 | 2.49 ± 0.13
13 | SAGGSAGGSAGGSGVLNIDEVWEDPESDLYTVVTTGEDEGTRVFVFDKNGKLLAEADLPSAGGSAGGSAGGS [r4_259_TrMRF] | 0.274 ± 0.034 | 0.405 ± 0.12 | 0.443 ± 0.1
14 | SAGGSAGGSAGGSIEINIMFELPNGLIFRISTTIEPNPDGNLKLDIDIEVIPIKPGQPISAGGSAGGSAGGS [r10_241_TrROS] | 3.11 ± 0.14 | 4.19 ± 0.13 | 3.96 ± 0.23
15 | SAGGSAGGSAGGSIEPITIILPDKIIRIYRFEDGTIVEIIDPETGKPTFISLEDAKKLIGSAGGSAGGSAGG [r7_372_TrMRF] | 2.33 ± 0.14 | 2.81 ± 0.043 | 2.61 ± 0.16
